In US20180298097A1:

Legend:
CHO-huTIM3 = CHO-huTIM3 (UniProt Q8TDQ0); assay: FACS binding, CHO-huTIM3 transfectant; isotype control
mouse TIM3 (mouse) [1] = target: mouse TIM3 (mouse) (UniProt Q8VIM0); assay: binding to activated mouse T cells; method not described
mouse TIM3 (mouse) [2] = target: mouse TIM3 (mouse) (UniProt Q8VIM0); assay: binding to activated mouse T cells, compared with TIM3.18 binding to human TIM-3

mouse TIM3 (mouse), sequence (Q8VIM0 20-281): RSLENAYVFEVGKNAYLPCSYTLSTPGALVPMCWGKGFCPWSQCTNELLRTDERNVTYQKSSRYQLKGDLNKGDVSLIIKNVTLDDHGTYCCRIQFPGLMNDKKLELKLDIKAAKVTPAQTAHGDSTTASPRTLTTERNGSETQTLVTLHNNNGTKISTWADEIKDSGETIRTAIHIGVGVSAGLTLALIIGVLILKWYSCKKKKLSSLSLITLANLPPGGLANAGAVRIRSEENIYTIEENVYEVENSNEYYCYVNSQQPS

Row | EC50 (CHO-huTIM3) [mg/mL] | EC50 (mouse TIM3 (mouse) [1]) [nM] | fold weaker EC50 than TIM3.18 on human TIM-3 (mouse TIM3 (mouse) [2]) [fold] | Substance
1 | 42.3 |  |  | hIgG2
2 | 29.3 |  |  | hIgG4
3 |  | 1.7 | 17 | rat anti-mouse TIM-3 antibody RMT3-23 (Bio-X-Cell)
